Test results: article PMC12858348, “Structural basis underlying the autoinhibition of the formin FHOD1 and its phosphorylation-dependent activation” (The Journal of Biological Chemistry, 2025)

T1: His-tagged FHOD1-N3 (1–360) (human, UniProt Q9Y613 1-360)
T1 construct: human FHOD1, residues 1-360 (GBD and FH3 domains), from human FHOD1 cDNA in pProEX-HTb; also called FHOD1-N-WT; N-terminal region
T1 sequence (looked up): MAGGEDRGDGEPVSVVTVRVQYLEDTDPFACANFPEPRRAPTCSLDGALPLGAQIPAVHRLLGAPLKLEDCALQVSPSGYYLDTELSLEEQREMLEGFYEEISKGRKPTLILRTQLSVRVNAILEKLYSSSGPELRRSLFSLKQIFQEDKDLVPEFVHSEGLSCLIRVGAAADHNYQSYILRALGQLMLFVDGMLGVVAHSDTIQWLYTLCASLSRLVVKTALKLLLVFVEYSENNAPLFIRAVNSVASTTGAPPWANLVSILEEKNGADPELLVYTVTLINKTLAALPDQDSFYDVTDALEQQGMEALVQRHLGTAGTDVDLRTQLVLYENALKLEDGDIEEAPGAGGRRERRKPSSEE


Molecular target: T1, His-tagged FHOD1-N3 (1–360)
Test: pull-down; 20 μg GST fusion protein (GST-DAD 1.25 μM) and 20 μg His-tagged protein (His-FHOD1-N3 1.0 μM) in 500 μl PBS pH 7.4 with 0.1% Triton X-100; glutathione-Sepharose 4B, 1 h at 4 °C; three washes; eluted with 10 mM glutathione; SDS-PAGE, CBB staining, densitometry
Conditions: both partners purified

Row | binding result | Binder
1 | binds | GST-fused FHOD1–DAD (1081–1145) (domain or fragment, human, UniProt Q9Y613 1081-1145, looked up, human FHOD1, residues 1081-1145 (diaphanous autoregulatory domain), in pGEX-6P; also called DAD-WT; GST-DAD; source: E. coli BL21, purified (glutathione-Sepharose-4B)) MPTVGPSTASPEEPPGSSLPSDTSDEIMDLLVQSVTKSSPRALAARERKRSRGNRKSLRRTLKSG
2 | binds | GST-fused FHOD1–DAD (1081–1145) M1108A (domain or fragment, human, UniProt Q9Y613 1081-1145, looked up, human FHOD1, residues 1081-1145 (DAD), M1108A in the core motif; also called DAD-M1108A; source: E. coli BL21, purified (glutathione-Sepharose-4B)) MPTVGPSTASPEEPPGSSLPSDTSDEIADLLVQSVTKSSPRALAARERKRSRGNRKSLRRTLKSG
